According to PMC7343212, “Lactoferrin-Hexon Interactions Mediate CAR-Independent Adenovirus Infection of Human Respiratory Cells” (Journal of Virology, 2020):

Columns and labels:
Test in all cases: SPR
[1] = molecular target: HAdV-A31 hexon (human adenovirus A31 (strain 1315/63))
[2] = molecular target: HAdV-B35 hexon (human adenovirus B35 (strain Holden))
[3] = molecular target: HAdV-C5 hexon (human adenovirus C5 (strain Ad75)) (UniProt P04133)

Substance | Kd [1] | koff [1] | kon [1] | Kd [2] | koff [2] | kon [2] | Kd [3] | koff [3] | kon [3]
human lactoferrin (hLF) (natural protein) | 827 nM | 0.0101 s⁻¹ | 12000 M⁻¹ s⁻¹ | 151 nM | 0.00354 s⁻¹ | 25000 M⁻¹ s⁻¹ | 29 nM | 0.00154 s⁻¹ | 53000 M⁻¹ s⁻¹
human lactoferricin 1-49 (hLfcin1-49) (peptide) | 187000 nM |  |  | 22100 nM |  |  | 730 nM |  | 
